Experimental data as given in patent US9937235B2, “Lipidated peptides as anti-obesity agents” (USTAV ORGANICKE CHEMIE A BIOCHEMIE AKADEMIE VED CR, V.V.I, priority 2012, dated 2018).
Where a SMILES comes first, the peptide text is derived from it. Where no end group is shown, it is not given here. [ ]: non-standard residue; d: D form. The star is where a group is joined. Phe(3,4-Cl2) = N[C@@H](Cc1ccc(Cl)c(Cl)c1)C(=O)O; Palmitoyl = CCCCCCCCCCCCCCCC(=O)*; Myristoyl = CCCCCCCCCCCCCC(=O)*; Decanoyl = CCCCCCCCCC(=O)*; Nle = CCCC[C@H](N)C(=O)O

T1: rat PrRP receptor in RC-4B/C cells (rat, UniProt Q64121 1-370)
T1 construct: whole, on cells; also called the rat receptor; GPR10
T1 sequence (looked up): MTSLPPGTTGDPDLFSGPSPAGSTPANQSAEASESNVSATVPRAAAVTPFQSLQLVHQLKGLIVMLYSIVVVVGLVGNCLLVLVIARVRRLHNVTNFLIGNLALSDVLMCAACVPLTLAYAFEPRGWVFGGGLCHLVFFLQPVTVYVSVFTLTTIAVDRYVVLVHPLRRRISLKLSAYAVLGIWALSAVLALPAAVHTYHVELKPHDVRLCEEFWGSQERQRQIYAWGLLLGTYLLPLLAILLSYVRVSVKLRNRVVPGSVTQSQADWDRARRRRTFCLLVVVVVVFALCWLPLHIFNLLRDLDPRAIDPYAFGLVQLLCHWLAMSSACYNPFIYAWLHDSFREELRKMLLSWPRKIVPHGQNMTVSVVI

B1: analog no. 60 (peptide)
peptide: Myristoyl-SRAHQHSMETRTPDINPAWYTGRGIRPVGRF-NH2
SMILES: CCCCCCCCCCCCCC(=O)N[C@@H](CO)C(=O)N[C@@H](CCCNC(=N)N)C(=O)N[C@@H](C)C(=O)N[C@@H](Cc1c[nH]cn1)C(=O)N[C@@H](CCC(N)=O)C(=O)N[C@@H](Cc1c[nH]cn1)C(=O)N[C@@H](CO)C(=O)N[C@@H](CCSC)C(=O)N[C@@H](CCC(=O)O)C(=O)N[C@H](C(=O)N[C@@H](CCCNC(=N)N)C(=O)N[C@H](C(=O)N1CCC[C@H]1C(=O)N[C@@H](CC(=O)O)C(=O)N[C@H](C(=O)N[C@@H](CC(N)=O)C(=O)N1CCC[C@H]1C(=O)N[C@@H](C)C(=O)N[C@@H](Cc1c[nH]c2ccccc12)C(=O)N[C@@H](Cc1ccc(O)cc1)C(=O)N[C@H](C(=O)NCC(=O)N[C@@H](CCCNC(=N)N)C(=O)NCC(=O)N[C@H](C(=O)N[C@@H](CCCNC(=N)N)C(=O)N1CCC[C@H]1C(=O)N[C@H](C(=O)NCC(=O)N[C@@H](CCCNC(=N)N)C(=O)N[C@@H](Cc1ccccc1)C(N)=O)C(C)C)[C@@H](C)CC)[C@@H](C)O)[C@@H](C)CC)[C@@H](C)O)[C@@H](C)O
B2: analog no. 61 (peptide)
peptide: Palmitoyl-SRAHQHSMETRTPDINPAWYTGRGIRPVGRF-NH2
SMILES: CCCCCCCCCCCCCCCC(=O)N[C@@H](CO)C(=O)N[C@@H](CCCNC(=N)N)C(=O)N[C@@H](C)C(=O)N[C@@H](Cc1c[nH]cn1)C(=O)N[C@@H](CCC(N)=O)C(=O)N[C@@H](Cc1c[nH]cn1)C(=O)N[C@@H](CO)C(=O)N[C@@H](CCSC)C(=O)N[C@@H](CCC(=O)O)C(=O)N[C@H](C(=O)N[C@@H](CCCNC(=N)N)C(=O)N[C@H](C(=O)N1CCC[C@H]1C(=O)N[C@@H](CC(=O)O)C(=O)N[C@H](C(=O)N[C@@H](CC(N)=O)C(=O)N1CCC[C@H]1C(=O)N[C@@H](C)C(=O)N[C@@H](Cc1c[nH]c2ccccc12)C(=O)N[C@@H](Cc1ccc(O)cc1)C(=O)N[C@H](C(=O)NCC(=O)N[C@@H](CCCNC(=N)N)C(=O)NCC(=O)N[C@H](C(=O)N[C@@H](CCCNC(=N)N)C(=O)N1CCC[C@H]1C(=O)N[C@H](C(=O)NCC(=O)N[C@@H](CCCNC(=N)N)C(=O)N[C@@H](Cc1ccccc1)C(N)=O)C(C)C)[C@@H](C)CC)[C@@H](C)O)[C@@H](C)CC)[C@@H](C)O)[C@@H](C)O
B3: analog no. 56 (peptide)
peptide: Myristoyl-SRTHRHSMEIRTPDINPAWYASRGIRPVGRF-NH2
SMILES: CCCCCCCCCCCCCC(=O)N[C@@H](CO)C(=O)N[C@@H](CCCNC(=N)N)C(=O)N[C@H](C(=O)N[C@@H](Cc1c[nH]cn1)C(=O)N[C@@H](CCCNC(=N)N)C(=O)N[C@@H](Cc1c[nH]cn1)C(=O)N[C@@H](CO)C(=O)N[C@@H](CCSC)C(=O)N[C@@H](CCC(=O)O)C(=O)N[C@H](C(=O)N[C@@H](CCCNC(=N)N)C(=O)N[C@H](C(=O)N1CCC[C@H]1C(=O)N[C@@H](CC(=O)O)C(=O)N[C@H](C(=O)N[C@@H](CC(N)=O)C(=O)N1CCC[C@H]1C(=O)N[C@@H](C)C(=O)N[C@@H](Cc1c[nH]c2ccccc12)C(=O)N[C@@H](Cc1ccc(O)cc1)C(=O)N[C@@H](C)C(=O)N[C@@H](CO)C(=O)N[C@@H](CCCNC(=N)N)C(=O)NCC(=O)N[C@H](C(=O)N[C@@H](CCCNC(=N)N)C(=O)N1CCC[C@H]1C(=O)N[C@H](C(=O)NCC(=O)N[C@@H](CCCNC(=N)N)C(=O)N[C@@H](Cc1ccccc1)C(N)=O)C(C)C)[C@@H](C)CC)[C@@H](C)CC)[C@@H](C)O)[C@@H](C)CC)[C@@H](C)O

How the values were obtained:
[1] = tested on: fasted C57BL/6 mice; assay: Food intake in fasted mice after SC administration; assay type: in vivo, mouse; settings: fasted C57BL/6 mice, 5 mg/kg SC, 45 min
Protocol: Male C57BL/6 mice (An Lab, Prague 4) were bred in the accredited animal facility in the Institute of Organic Chemistry and Biochemistry, Czech Academy of Sciences, Prague, at the Institute of Molecular Genetics, Prague 4, at the temperature of 22±2° C. with access to food and water ad libitum. The day/night cycle was 12/12 hours (light turned on at 6:00 am). Animals were treated according to the Animal Protection Act (Act No. 246/1992). The males were fed standard chow diet St-1 (Mlýn Kocanda, Praha, Czech Republic) which contained 66% saccharides, 25% proteins and 9% lipids with a caloric value of 3.4 kcal/g.
The food was withdrawn 17 hours prior to injection of lipidated peptide and free access to water was maintained. The administration of saline, PrRP or lipidated analogs was performed either by SC injection at doses of 1-10 mg/kg (volume 0.2 ml/mouse), or by ICV using infusion pump (cannulae were inserted into the third brain ventricle 4 days before the experiment following the procedure of Maixnerová et al. (Maixnerová et al., 2011)). The single dose of peptide was 4 nmol/mouse (5 μl/mouse).
Fifteen minutes after the lipidated peptide administration, the mice were given pre-weighed food. The food was then weighed every 30 minutes for 5-10 hours. The administration of every dose was performed at least twice and one group of mice consisted of at least 6 mice. The results were presented as % of food intake as compared with the control group injected with saline.
Statistical evaluation was performed using program Graph-Pad Prism Software (San Diego, Calif., USA), and the one-way ANOVA with a subsequent Dunnettovým post-hoc test. The difference in food intake between mice injected with saline and mice injected with the examined peptide were considered statistically significant at P<0.05.

[2] = molecular target: T1, rat PrRP receptor in RC-4B/C cells; assay: competition with 125I-rat PrRP31 on RC-4B/C cells
Protocol: The rat pituitary cell line RC-4B/C (ATCC, Manassas, USA) was grown on 24-well plates which had their bottom coated with polyethyleneimine. The cells were grown to the optimal density of 300-450 thousand per well.
Plates were incubated for 60 minutes at room temperature. After incubation, the cells were solubilized in 0.1 mol/l solution of NaOH and the radioactivity bound to the cells was counted using a γ-counter. The experiments were performed in duplicate and repeated at least three times.
For evaluation of competitive binding experiments, the program Graph Pad Prism Software (San Diego, Calif., USA) was used. A method of nonlinear regression assuming one-site binding was used.

| Molecule | Food intake in mice (5 mg/kg SC) % saline-treated group (45 min) [1] [%] | Ki [2] [µM] |
| --- | --- | --- |
| CCCCCCCCCCCCCCCC(=O)N[C@@H](CO)C(=O)N[C@@H](CCCNC(=N)N)C(=O)N[C@@H](C)C(=O)N[C@@H](Cc1c[nH]cn1)C(=O)N[C@@H](CCC(N)=O)C(=O)N[C@@H](Cc1c[nH]cn1)C(=O)N[C@@H](CO)C(=O)N[C@@H](CCCC)C(=O)N[C@@H](CCC(=O)O)C(=O)N[C@H](C(=O)N[C@@H](CCCNC(=N)N)C(=O)N[C@H](C(=O)N1CCC[C@H]1C(=O)N[C@@H](CC(=O)O)C(=O)N[C@H](C(=O)N[C@@H](CC(N)=O)C(=O)N1CCC[C@H]1C(=O)N[C@@H](C)C(=O)N[C@@H](Cc1c[nH]c2ccccc12)C(=O)N[C@@H](Cc1ccc(O)cc1)C(=O)N[C@H](C(=O)NCC(=O)N[C@@H](CCCNC(=N)N)C(=O)NCC(=O)N[C@H](C(=O)N[C@@H](CCCNC(=N)N)C(=O)N1CCC[C@H]1C(=O)N[C@H](C(=O)NCC(=O)N[C@@H](CCCNC(=N)N)C(=O)N[C@@H](Cc1ccc(Cl)c(Cl)c1)C(N)=O)C(C)C)[C@@H](C)CC)[C@@H](C)O)[C@@H](C)CC)[C@@H](C)O)[C@@H](C)O [Analog 26] (Palmitoyl-SRAHQHS[Nle]ETRTPDINPAWYTGRGIRPVGR[Phe(3,4-Cl2)]-NH2) | 5 | – |
| CCCCCCCCCC(=O)N[C@@H](CO)C(=O)N[C@@H](CCCNC(=N)N)C(=O)N[C@@H](C)C(=O)N[C@@H](Cc1c[nH]cn1)C(=O)N[C@@H](CCC(N)=O)C(=O)N[C@@H](Cc1c[nH]cn1)C(=O)N[C@@H](CO)C(=O)N[C@@H](CCCC)C(=O)N[C@@H](CCC(=O)O)C(=O)N[C@H](C(=O)N[C@@H](CCCNC(=N)N)C(=O)N[C@H](C(=O)N1CCC[C@H]1C(=O)N[C@@H](CC(=O)O)C(=O)N[C@H](C(=O)N[C@@H](CC(N)=O)C(=O)N1CCC[C@H]1C(=O)N[C@@H](C)C(=O)N[C@@H](Cc1c[nH]c2ccccc12)C(=O)N[C@@H](Cc1ccc(O)cc1)C(=O)N[C@H](C(=O)NCC(=O)N[C@@H](CCCNC(=N)N)C(=O)NCC(=O)N[C@H](C(=O)N[C@@H](CCCNC(=N)N)C(=O)N1CCC[C@H]1C(=O)N[C@H](C(=O)NCC(=O)N[C@@H](CCCNC(=N)N)C(=O)N[C@@H](Cc1ccccc1)C(N)=O)C(C)C)[C@@H](C)CC)[C@@H](C)O)[C@@H](C)CC)[C@@H](C)O)[C@@H](C)O [Analog 16] (Decanoyl-SRAHQHS[Nle]ETRTPDINPAWYTGRGIRPVGRF-NH2) | 57 | – |
| Myristoyl-[code f][code r]GVPRIGRGTYWAPNIDPT-NH2 [analog no. 37] | – | 0.364 |
| Palmitoyl-SRTHRHSMEIRTPDINPAWYASRGIRPVGRF-NH2 [analog no. 57] | – | 0.00028 |
| SHQRPADTHWYPRG[Nle]FPTIGRITARNGEVSR (printed without a C-terminal amide) [analog no. 30] | – | 1320 |
| B1 | – | 0.00075 |
| B2 | – | 0.00041 |
| TPDINPAWYASRGIRPVGRF-NH2 [analog no. 51] | – | 0.00238 |
| B3 | – | 0.00095 |
